What was measured:
[1] = biological target: T1, CC chemokine receptor 4 (CCR4) (human, UniProt P51679 1-360); assay: flow cytometry on HH cells transduced with the CAR; reduced staining by the parent mAb
T1 construct: whole, on cells; No recombinant CCR4 was used; also called CD194
T1 sequence (looked up): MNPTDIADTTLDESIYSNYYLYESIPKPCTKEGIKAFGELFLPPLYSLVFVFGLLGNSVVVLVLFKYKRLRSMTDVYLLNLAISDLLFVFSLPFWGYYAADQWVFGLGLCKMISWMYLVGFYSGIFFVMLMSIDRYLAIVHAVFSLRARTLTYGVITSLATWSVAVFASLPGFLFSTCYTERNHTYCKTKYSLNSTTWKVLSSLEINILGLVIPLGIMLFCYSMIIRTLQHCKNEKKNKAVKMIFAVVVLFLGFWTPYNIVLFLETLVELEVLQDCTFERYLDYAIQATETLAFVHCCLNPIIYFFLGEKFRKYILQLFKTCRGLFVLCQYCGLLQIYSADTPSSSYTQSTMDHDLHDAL

[2] = biological target: T1, CC chemokine receptor 4 (CCR4); assay: flow cytometry on HH cells transduced with the CAR; loss of staining by the parent mAb
[3] = biological target: T1, CC chemokine receptor 4 (CCR4); assay: flow cytometry on HH cells, KW-0761 conjugated to Ax680
Procedure: CCR4 was analyzed by FCM.
Dead cells were gated out by staining with violet amine-reactive viability dye, LIVE-DEAD violet (Invitrogen). Intracellular staining was performed using the Foxp3/Transcription Factor Staining Kit (Affymetrix) per the manufacturer's instructions. CCR4-CAR and CD19-CAR expression were detected by biotinylated antihuman Fab antibody and anti-mouse Fab antibody (Jackson ImmunoResearch), respectively. […] Data were collected either by a Fortessa LSRII or LSR II cytometer (BD Biosciences) and analyzed using FlowJo version 10 software (Tree Star).

B1: CCR4(KW_L2H)-CAR (other)
chain: GSDVLMTQSPLSLPVTPGEPASISCRSSRNIVHINGDTYLEWYLQKPGQSPQLLIYKVSNRFSGVPDRFSGSGSGTDFTLKISRVEAEDVGVYYCFQGSLLPWTFGQGTKVEIKGGGGSGGGGSGGGGSGGGGSEVQLVESGGDLVQPGRSLRLSCAASGFIFSNYGMSWVRQAPGKGLEWVATISSASTYSYYPDSVKGRFTISRDNAKNSLYLQMNSLRVEDTALYYCGRHSDGNFAFGYWGQGTLVTVSSSGTTTPAPRPPTPAPTIASQPLSLRPEACRPAAGGAVHTRGLDFACDIYIWAPLAGTCGVLLLSLVITLYCKRGRKKLLYIFKQPFMRPVQTTQEEDGCSCRFPEEEEGGCELRVKFSRSADAPAYKQGQNQLYNELNLGRREEYDVLDKRRGRDPEMGGKPRRKNPQEGLYNELQKDKMAEAYSEIGMKGERRRGKGHDGLYQGLSTATKDTYDALHMQALPPR
notes: Chimeric antigen receptor on the surface of transduced HH cells or primary T cells
binding result [1]: binds

B2: CCR4(h1567_L2H)-CAR (other)
chain: DIVMTQSPDSLAVSLGERATINCKSSQSILYSSNQKNYLAWYQQKPGQSPKLLIYWASTRESGVPDRFSGSGSGTDFTLTISSLQAEDVAVYYCHQYLSSYTFGQGTKLEIKGGGGSGGGGSGGGGSGGGGSQVQLVQSGAEVKKPGASVKVSCKASGYTFASYYMHWMRQAPGQGLEWIGWINPGNVNTKYNEKFKGRATLTVDTSTNTAYMELSSLRSEDTAVYYCARSTYYRPLDYWGQGTLVTVSS
notes: Chimeric antigen receptor on the surface of transduced HH cells or primary T cells; also called CCR4-CAR(h1567_L2H); not shown: second-generation CAR backbone (CD8 hinge and transmembrane, 4-1BB, CD3 zeta); the fu
binding result [2]: binds

B3: anti-CCR4 monoclonal antibody clone KW-0761 (mogamulizumab) (antibody, V domains shown)
VH: EVQLVESGGDLVQPGRSLRLSCAASGFIFSNYGMSWVRQAPGKGLEWVATISSASTYSYYPDSVKGRFTISRDNAKNSLYLQMNSLRVEDTALYYCGRHSDGNFAFGYWGQGTLVTVSS
VL: DVLMTQSPLSLPVTPGEPASISCRSSRNIVHINGDTYLEWYLQKPGQSPQLLIYKVSNRFSGVPDRFSGSGSGTDFTLKISRVEAEDVGVYYCFQGSLLPWTFGQGTKVEIK
notes: also called anti-CCR4 clone KW monoclonal antibody
binding result [3]: binds

Reference: patent US20240122981A1 (University of Pennsylvania, published 2024)
